What was measured:
Cynomolgus monkey TSLP = Cynomolgus monkey TSLP (cynomolgus monkey, UniProt A0A7N9CAT7 29-159); experiment: cell-based or functional assay
[1] = target: T1, Human thymic stromal lymphopoietin (TSLP) (human, UniProt Q969D9 29-159); experiment: cell-based or functional assay
natural TSLP = experiment: cell-based or functional assay
[2] = target: T1, Human thymic stromal lymphopoietin …; experiment: SPR, Biacore T200, 25 C, antibody captured on Protein A chip, human TSLP as analyte, 1:1 model, mean of three tests
Method: Biacore T200 was used to detect the affinity of QX008N (HZD8G2-57) binding to human TSLP. All processes were performed at 25° C. A commercial Protein A chip was used to immobilize an appropriate amount of antibody through the capture method so that Rmax was around 50RU and the capture flow rate was 10 μl/min. The antigen was diluted by gradient, the flow rate of the instrument was switch to 30 μl/min, and the antigen flowed through the reference channel and the fixed antibody channel in order from low to high concentration, with the antigen flowing through the buffer as a negative control. After each binding and dissociation was completed, the chip was regenerated with glycine at pH 1.5. The 1:1 binding model in Kinetics option was selected for fitting using the analysis software that comes with the instrument, and the binding rate constant kₐ, the dissociation rate constant kd and the equilibrium dissociation constant KD value of the antibody were calculated.
The detection method for known antibodies was the same as that for QX008N.

Cynomolgus monkey TSLP, sequence (A0A7N9CAT7 entry or part of it): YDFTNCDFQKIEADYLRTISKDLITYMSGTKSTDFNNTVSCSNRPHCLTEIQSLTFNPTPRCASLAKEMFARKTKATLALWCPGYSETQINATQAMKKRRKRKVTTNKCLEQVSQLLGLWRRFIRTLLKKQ

B1: Tezepelumab (antibody, V domains shown)
VH: QMQLVESGGGVVQPGRSLRLSCAASGFTFRTYGMHWVRQAPGKGLEWVAVIWYDGSNKHYADSVKGRFTITRDNSKNTLNLQMNSLRAEDTAVYYCARAPQWELVHEAFDIWGQGTMVTVSS
VL: SYVLTQPPSVSVAPGQTARITCGGNNLGSKSVHWYQQKPGQAPVLVVYDDSDRPSWIPERFSGSNSGNTATLTISRGEAGDEADYYCQVWDSSSDHVVFGGGTKLTVLG
Q: With B1 as the binder, how does the “IC50 of inhibiting STAT5 phosphorylation in SW756-STAT5-Luciferase reporter gene cells induced by Cynomolgus monkey TSLP” value (Cynomolgus monkey TSLP) read?
A: Its value is 1.88 ng/mL.

B2: QX008N (HZD8G2-57) (antibody, human IgG1, kappa, V domains shown)
VH: EVQLVESGGGLVQPGGSLRLSCAASGFSLSSYYMSWVRQAPGKGLEWVGFISYGGSAYHATWAQGRFTISKDNSKNTLYLQMNSLRAEDTAVYYCAREFRSMTYGAEWGIWGQGTLVTVSS
VL: AYQMTQSPSSVSASVGDRVTITCQASESIYDTLAWYQQKPGKAPKLLIYSASSLASGVPSRFSGSGSGTDFTLTISSLQPEDFATYYCQQGYTMPDVDKNPFGGGTKVEIKR
notes: Humanized rabbit antibody from clone 8G2; Expressed in ExpiCHO-S cells and purified with Protein A; also called humanized 8G2
Q: For B2, which “IC50 of inhibiting STAT5 phosphorylation in SW756-STAT5-Luciferase reporter gene cells induced by human TSLP” value [1] is on record?
A: Its value is 0.837 ng/mL.

Q: What about the “IC50 of inhibiting the release of TARC (CCL17) from PBMCs induced by human TSLP” value [1] of the same binder?
A: Its value is 77.1 ng/mL.

Q: What about the “IC50 of inhibiting the release of TARC (CCL17) from human whole blood induced by human TSLP” value [1] of the same binder?
A: Its value is 0.839 ng/mL.

Q: And the “IC50 of inhibiting STAT5 phosphorylation in SW756-STAT5-Luciferase reporter gene cells induced by Cynomolgus monkey TSLP” value (Cynomolgus monkey TSLP)?
A: Its value is 0.889 ng/mL.

Q: And the “IC50 of inhibiting STAT5 phosphorylation in SW756-STAT5-Luciferase reporter gene cells induced by natural TSLP” value (natural TSLP)?
A: The value was 0.462 ng/mL.

Q: And the Kd [2]?
A: Its Kd is 0.0175 nM.

Q: What about the koff [2] of the same binder?
A: Its koff is 2.99e-05 s⁻¹.

Q: And the kon [2]?
A: Its kon is 1.74e+06 M⁻¹ s⁻¹.

From patent US20240352117A1 (QYUNS THERAPEUTICS, published 2024)
